Like-named read-outs stand apart in the source and are kept apart here.
T1: Apc5 (yeast, UniProt Q08683 1-685, limits assumed)
T1 construct: Expressed as a Y2H bait fusion; also called Apc5 bait
T1 sequence (looked up): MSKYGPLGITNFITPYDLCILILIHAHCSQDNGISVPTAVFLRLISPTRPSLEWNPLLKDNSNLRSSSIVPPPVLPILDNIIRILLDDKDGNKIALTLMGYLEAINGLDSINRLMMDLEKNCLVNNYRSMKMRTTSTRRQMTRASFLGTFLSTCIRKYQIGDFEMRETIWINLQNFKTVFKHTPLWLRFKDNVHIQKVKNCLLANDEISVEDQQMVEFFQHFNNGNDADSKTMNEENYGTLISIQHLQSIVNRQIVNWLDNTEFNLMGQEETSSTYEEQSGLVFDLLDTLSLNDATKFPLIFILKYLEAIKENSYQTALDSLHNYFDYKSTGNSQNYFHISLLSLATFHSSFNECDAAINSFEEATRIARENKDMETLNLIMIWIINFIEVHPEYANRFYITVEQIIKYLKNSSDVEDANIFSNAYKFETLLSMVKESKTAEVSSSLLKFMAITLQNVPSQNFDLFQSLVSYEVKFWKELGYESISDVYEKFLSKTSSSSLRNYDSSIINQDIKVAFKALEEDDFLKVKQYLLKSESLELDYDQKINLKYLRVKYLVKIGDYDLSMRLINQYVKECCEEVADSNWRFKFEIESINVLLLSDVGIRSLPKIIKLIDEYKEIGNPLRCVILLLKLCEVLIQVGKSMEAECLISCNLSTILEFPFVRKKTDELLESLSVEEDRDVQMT

T2: Apc10 (yeast, UniProt P53068 1-250, limits assumed)
T2 construct: Expressed as a Y2H bait fusion; also called yeast Apc10 APC subunit; Apc10 bait
T2 sequence (looked up): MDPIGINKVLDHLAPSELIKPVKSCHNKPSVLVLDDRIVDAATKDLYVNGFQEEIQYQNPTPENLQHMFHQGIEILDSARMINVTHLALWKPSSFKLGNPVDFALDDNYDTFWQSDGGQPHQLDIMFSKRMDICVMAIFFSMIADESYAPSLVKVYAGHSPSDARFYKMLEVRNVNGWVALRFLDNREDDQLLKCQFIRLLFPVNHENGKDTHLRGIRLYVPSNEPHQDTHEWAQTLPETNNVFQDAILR


Experiments:
Assay in all cases: yeast 2-hybrid
Apc5 = target: T1, Apc5
Apc10 [1] = target: T2, Apc10
Apc10 [2] = target: T2, Apc10; remark: listed apart in the source

Binder	binding result (Apc5)	binding result (Apc10 [1])	also measured
RMPQWWQWMWV (Shown as the variable loop of the Trx scaffold on a Y2H prey vector. The letters do not carry this., also called 11-3; C2-4B aptamer; not shown: TrxA scaffold and Y2H fusion domain) [peptide C2-4B]	binds	–	–
RRCLSIRTENLAWEGKFLRV (Displayed in the assay as the variable loop of a TrxA scaffold fused to a Y2H prey domain; carrier not written., not shown: TrxA (thioredoxin) scaffold halves flanking the loop and the Y2H prey fusion domain) [peptide 50-1]	–	binds	–
GRMLMTYLMYFMVLWVPRPWGPPL (Displayed in the assay as the variable loop of a TrxA scaffold fused to a Y2H prey domain; carrier not written., not shown: TrxA (thioredoxin) scaffold halves flanking the loop and the Y2H prey fusion domain) [peptide 1-8]	–	binds	–
NGSSHNDLRVRRLTLISRLC (Shown in the assay as the variable loop of a Trx scaffold fused to a Y2H prey domain. The letters do not carry this., also called C43-4 aptamer; Htz1-like peptide; not shown: Thioredoxin (TrxA) scaffold flanking the loop and the Y2H prey fusion domain) [peptide C43-4]	–	binds	–
NGSSHNDARVRRLTLISRLC (peptide, not shown: large carriers, Presumably shown in the Trx scaffold like its parent. The letters do not carry this., C43-4 with leucine 8 replaced by alanine; also called C43-L8A) [peptide C43-4-3]	–	–	binding result (Apc10 [2]): binds
SKWTWRMCMSWTVDRFAPVPWP (Displayed in the assay as the variable loop of a TrxA scaffold fused to a Y2H prey domain; carrier not written., not shown: TrxA (thioredoxin) scaffold halves flanking the loop and the Y2H prey fusion domain) [peptide 24-1]	binds	–	–

Reference: patent US20200123558A1 (UNIVERSITY OF SASKATCHEWAN AND NATIONAL RESEARCH COUNCIL OF …, published 2020)
